This is an account of results in the nanobody polyreactivity screen of Harvey et al. (2022).

The data set in a line: yeast display, Sf9 membrane polyspecificity reagent, FACS + sequencing; frameworks hold sequencing errors. In outline: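 Galactose induction of a Saccharomyces cerevisiae BJ5465 synthetic nanobody display library ran 36–48 hours. The cells were then stained for 1 hour at 4 °C with 10% biotinylated, detergent-solubilized Sf9 membrane reagent, pulled down on streptavidin microbeads and FACS-sorted into low and high (top ~1%) gates on expression and reagent-binding fluorescence. Labels for polyreactivity follow the gate of origin.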
Take “QVQLVESGGGLVQAGGSLRLSCAASGGIFSSYAMGGYRQAPGKERELVASISRRGTSTYYADSVKGRFTISRDNAKNTVYLQMNSLKPEDTAVYYCAAGTKYTSAVHFYYWGQGTQVTVSS”: the “polyreactivity (PSR sort gate)” value is recorded as “high polyreactivity”.
For “QVQLVESGGGLVQAGGSLRLSCAASGGIFSSYAMGWYRQAPGKERELVASISRRGTSTYYADSVKGRFTISRDNAKNTVYLQMNSLKPEDTAVYYCAAGTKYTSAVHFYYWGQGTQVTVSS”, the “polyreactivity (PSR sort gate)” value is recorded as “high polyreactivity”.
Consider “QVQLVESGGGLVQAGGSLRLSCAASGGIFSTYTMRWYRQAPGKERELVAAITTGNSTYYADSVKGRFTISRDNAKNTVYLQMNSLKPEDTAVYYCAAFAASRDYYRRLFHDGYDYWGQGTQVTVSS”, for which the “polyreactivity (PSR sort gate)” value was “low polyreactivity”.
“QVQLVESGGGLVQAGGSLRLSCAASGGIFSYYAMGWYRQAPGKEREFVAAIDWGGGSTYYADSVKGRFTISRDNAKNTVYFQMNSLKPEDTAVYYCAAEIYPIGWDDYDYWGQGTQVTVSS”: the “polyreactivity (PSR sort gate)” value is “low polyreactivity”.
As to “QVQLVESGGGLVQAGGSLRLSCAASGGIFTGYAMGWYRQAPGKERELVASITISGGRTYYADSVKGRFTISRDNAKNTVYLQINSLKPEDTAVYYCAATIPWYKYRYYYWGQGTQVTVSS”, the “polyreactivity (PSR sort gate)” value is given as “high polyreactivity”.
Under “QVQLVESGGGLVQAGGSLRLSCAASGGIFTYYTMGWYRQAPGKERELVAAISRRVGRTYYADSVKGRFTISRDKANNTVYLQMNSLKPEDTAVYYCNADSRRRLFDYWGQGTQVTVSS” stands “high polyreactivity”; under “QVQLVESGGGLVQAGGSLRLSCAASGGIFVGNAMGWYRQAPGKERELVAAISQRGGRTYYADSVKGRFTISRDNAKNTVYLQMNSLKPEDTAVYYCAAGYWLSTDSGYPFQYYLYDYWGQGTQVTVSS”, “high polyreactivity”.
Turning to “QVQLVESGGGLVQAGGSLRLSCAASGGIFVRYAMGWYRQAPGKERELVAAISSSGDRTYYADSVKGRFTISRDNAKNTVYLQMHSLKPEDTAVYYCNADRGHDKVDYWGQATQVTVSS”, the “polyreactivity (PSR sort gate)” value is listed as “low polyreactivity”.
For the sequence “QVQLVESGGGLVQAGGSLRLSCAASGGIFVSYAMGWYRQAPGKERELVARINAVDGTNYADSVKGRFTISRDNAKYTVYLQMKSVKPEDTAVYYCAVRSPVLASDYGYYFLRDYWGQGTQVTVSS”, the “polyreactivity (PSR sort gate)” value is “low polyreactivity”.
With “QVQLVESGGGLVQAGGSLRLSCAASGGIFVSYAMGWYRQAPGKEWELVAAITSGGGTSYADSVKGRFTISRDNAKNTVYLQMNSLKPEDTAVYYCNADGYLAERFVIRLDEYRHYDYWGQGTQVTVSS”, the “polyreactivity (PSR sort gate)” value is listed as “low polyreactivity”.
“QVQLVESGGGLVQAGGSLRLSCAASGGIFWSYAMGWYRQAPGKERELVAAISSGTYYADSVKGRFTISRDNAKNTVYLQMNSLIPEDTAVYYWNVQTYNVAWFYRYDMNYWGQGPQVTVSS”: the “polyreactivity (PSR sort gate)” value is “low polyreactivity”.
Consider “QVQLVESGGGLVQAGGSLRLSCAASGGIFWYNAMGWYRQAPGKERELVADISSSGITYYADSVKGRFTISRDNAKNTVYLQMKSLKPEDTAVYYCAADSTTRPGLRVYDDYDYWGQGTQVTVSS”, for which the “polyreactivity (PSR sort gate)” value was “low polyreactivity”.
To “QVQLVESGGGLVQAGGSLRLSCAASGGIFWYYAMGWYRQAPGKERELVAAINSGGSTYYADSVKGRFTISRDNAKNTVYLQMNSLNPEDTAVYYCNTRYPFSRYDYWGQGTQVTVSS” belongs “low polyreactivity”.
In the case of “QVQLVESGGGLVQAGGSLRLSCAASGGIFYAYAMGWYRQAPGKERELVAAISISDGDTYYADSVKGRFTISRDNAKNTVYLQMNSLKPEDTAVYYCAAEQEYDLREYDYWGQGTQVTVSS”, the “polyreactivity (PSR sort gate)” value is “high polyreactivity”.
To “QVQLVESGGGLVQAGGSLRLSCAASGGIFYLYAMGWYRQAPGKEREFVAAISSSGGSTNYADSVKGRFTISRDNAKNTVYLQMNSLKPEDTAVYYCAARWLPFLDLGKTYEYWGQGTQVTVSS” belongs “high polyreactivity”; to “QVQLVESGGGLVQAGGSLRLSCAASGGIFYSNAMGWYRQAPGKERELVAVISGNGGRTYYADSVKGRFTISRDNAKNTVYLQMNSLKPEDTAVYYCATPSYTTAYVEGDYWGQGTQVTVSS”, “low polyreactivity”; to “QVQLVESGGGLVQAGGSLRLSCAASGGIFYTYAMGWYRQAPGKEREFVAAISRRGSSTYYADSVKGRFTISRDNEKNTVYLQMNSLKPEDTAVYYCAKSYAPYSYANNDYWGQGTQVTVSS”, “low polyreactivity”.
Regarding “QVQLVESGGGLVQAGGSLRLSCAASGGIISTNAMGWYRQAPGKERDLVAAISRRGGSTYYADSVKGRFTISRDYAKNSVYLQMNCLKPEDTAVYYCNKYLRLFSYGRGYDYWGQGTQVTVSS”, the “polyreactivity (PSR sort gate)” value was “high polyreactivity”.
Turning to “QVQLVESGGGLVQAGGSLRLSCAASGGILDTSAMGWYRQAPGKERELVAAITSGGHTNYADSVKGRFTISRDNAKNTVYLQMNSLKPEDTAVYYCNVVTWYYVFRPWEYDYWGHGTQVTVSS”, the “polyreactivity (PSR sort gate)” value is reported as “low polyreactivity”.
Turning to “QVQLVESGGGLVQAGGSLRLSCAASGGILPKYAMGWYRQAPGKERELVAAIDGGGDSTYYADSVKGRFTISRDNAKNTVYLQMNSLKPEDTAVFYCAAYQWTGYYLEYDYWGQGTQVTVSS”, the “polyreactivity (PSR sort gate)” value is “low polyreactivity”.
Take “QVQLVESGGGLVQAGGSLRLSCAASGGILSDYAMGWYRQAPWKERELVAAITISGGRTNYADSVKGRFTISRDNAKNTVYLQMNSLKPEDTAVYYCAAGFYPYYYWGQGTQVTVSS”: the “polyreactivity (PSR sort gate)” value is reported as “low polyreactivity”.
Consider “QVQLVESGGGLVQAGGSLRLSCAASGGILTKYAMGWYRQAPGKEREFVAAISWRGGTTYYADSVKGRFTISRDNAKNTVYLQMNSLKPEDSAVYYCAADILWYFGQEYDYWGKGTQVTVSS”, for which the “polyreactivity (PSR sort gate)” value is “low polyreactivity”.
For the sequence “QVQLVESGGGLVQAGGSLRLSCAASGGILVGYALGWYRQAPGKERELVAAITSTGSTYYADSVKGRFTISRDNAKNTVYLQMNSLKPEDTAVYYCNAIGLHRYDYWGQGTQETVSS”, the “polyreactivity (PSR sort gate)” value was “low polyreactivity”.
For “QVQLVESGGGLVQAGGSLRLSCAASGGILVGYAMGRYRQAPGKERELVAANNYSGGSTNYADSVKGRFTISRDNAKYSVYLQMNSLKPEDTAVYFCAARSTARYGYWGQGTQVTVSS”, the “polyreactivity (PSR sort gate)” value is listed as “low polyreactivity”.
For the sequence “QVQLVESGGGLVQAGGSLRLSCAASGGISHRYAMGWYRQAPGKERELVAAITASGTSTNYADSVKGRFTISRDNAKNTVYLQMNSLKPEDTAVYYCAARYYSFFYPYYYWGQGTQVTVSS”, the “polyreactivity (PSR sort gate)” value was “high polyreactivity”.
“QVQLVESGGGLVQAGGSLRLSCAASGGIVDSNAMGWYRQAPGKERELVAAISDSGGSTYYADSVKGRFTISRDNAKNTVYLQMNSLKPEDTAVYYCAADSDYHFVNYRFGMDYWGQGTQVTVSS”: the “polyreactivity (PSR sort gate)” value is reported as “low polyreactivity”.
On to “QVQLVESGGGLVQAGGSLRLSCAASGGIYYSNAMGWYRQAPGKERELVAAISRDGTITYYADSEKGRFTSSRDNAKNTVYLQMNSLKPEDTAVYSCASDPSIPSWYSIYVYWGQGTQVTVSS”, for which the “polyreactivity (PSR sort gate)” value is recorded as “high polyreactivity”.
As for “QVQLVESGGGLVQAGGSLRLSCAASGGMGWYRQAPGKERELVATISSVGSTNYADSVKGRFTISRDNAKNTVYLQMNSLKPEDTAVYYCNANGVQYFLYGYWGQGTQVTVSS”, the “polyreactivity (PSR sort gate)” value is “low polyreactivity”.
Regarding “QVQLVESGGGLVQAGGSLRLSCAASGGNFGYYAMGWYRQAPGKEREFVAAITLSGGRTYYADSVKGRFTISRDNAKNTVYLQMNSLKPEDTAVYYCAAKGTRRGKERNYWGQGTQVTVSS”, the “polyreactivity (PSR sort gate)” value is reported as “high polyreactivity”.
Consider “QVQLVESGGGLVQAGGSLRLSCAASGGNFVSYAMGWYRQAPGKERDLVARINSVDGTNYADSVKGRFTISRDNAKNTVYLQMNSLKPEDTAVYYCATGGYYSAIVYGGYDYWGQGTQVTVSS”, for which the “polyreactivity (PSR sort gate)” value is reported as “low polyreactivity”.
Regarding “QVQLVESGGGLVQAGGSLRLSCAASGGSFPDNARGWYRQAPGKERELVAAISFSGSSTYADSVKGRFTISRDNAKKTVNLQMNSLKPEDTAVYYCNTDGYIYRYRFDYWGQGTQVTVSS”, the “polyreactivity (PSR sort gate)” value was “low polyreactivity”.
Under “QVQLVESGGGLVQAGGSLRLSCAASGGTFFSYAMGWYRQAPGKERELVAAISRGGDTTYADSVKGRFTISRDNAKNTVYLQMNSLKPEDTAVYYCAARVPPLLTDSPVFPYDYWGQGTQVTVSS” stands “low polyreactivity”.
On to “QVQLVESGGGLVQAGGSLRLSCAASGGTFFVYAMGWSRPAPGKERELVAAISGSGGRTYYADSVKGRFTISRDNAKNTVYLQMNSLTPEDTAVYYCNATYLTRSTRLSDFDYWGQGTQVTVSS”, for which the “polyreactivity (PSR sort gate)” value is given as “high polyreactivity”.
Consider “QVQLVESGGGLVQAGGSLRLSCAASGGTFGAYAMGWYRQAPGKERELVAAISGSGARTYYADSVKGRFTISRDNAKNTVYVQMNSLKPEDTAVYYCAARSTGTRVGEYDYWGQGTQVTVSS”, for which the “polyreactivity (PSR sort gate)” value is reported as “high polyreactivity”.
Turning to “QVQLVESGGGLVQAGGSLRLSCAASGGTFGLNAMGWYRQAPGKERELVAAITVTGGSDTYYADSVKGRFTISRDNAKNTVYLQMNSLKPEDTAVYYCAADIGKLYDYWGQGTQVTVSS”, the “polyreactivity (PSR sort gate)” value was “low polyreactivity”.
Take “QVQLVESGGGLVQAGGSLRLSCAASGGTFGPYAMGWYRQAPGKERELVATIRSSGGRTYYADSVKGRFTISRDNAKNTVYFQMNSLKPEDTAVYYCAATEFRYFEGGAYFEGYYWGQGTQVTVSS”: the “polyreactivity (PSR sort gate)” value is “low polyreactivity”.
To “QVQLVESGGGLVQAGGSLRLSCAASGGTFGPYAMGWYSQAPGKERELVATIRSSGGRTYYADSVTGRFTISRDNAKNTVYFQMNSLKPEDTAVYYCAADNLRQFGEYDYWGQGTQVTVSS” belongs “low polyreactivity”; to “QVQLVESGGGLVQAGGSLRLSCAASGGTFGRYTMGWYRQAPGKERELVATITIGGGTNYADSVKGRFTISRDNAKNTVYLQMNSLKPEDTAVYYCARAWRWRCRYYEYGYWGQGTQVTVSS”, “high polyreactivity”.
Under “QVQLVESGGGLVQAGGSLRLSCAASGGTFGSNAMGWYRPAPGKERELVAAISTTGGTTYYADSVKGRFTISRDNAKNTVYLQMNSLKPEDPAVYYCAKDGYVYGDWYTYAYDYWGQGTQVTVSS” stands “low polyreactivity”.
Under “QVQLVESGGGLVQAGGSLRLSCAASGGTFGVNTMGWYSHAPGKERELVAAISNRGVSTYYADSVKGRFTISRDNAKNTVYLQMNSQKPEDTAVYYCASTNSYVYSITLDRYDYWGQGTQVTVSS” stands “low polyreactivity”.
